For this test, the target named is BSG-S variant E92K (Ok(a-) variant) (human). In words: SPR.

“PfRh5 (purified, SPR analyte) (from UniProt Q8IFM5 25-526) (ligand)” had a fold lower affinity than the BSG reference sequence (equilibrium) of 2 fold.

The values are drawn from article PMC3245779.
